Where two headings read alike, the source gives them in different places. Each block holds one binder with its values, some of them ahead of it.
Legend:
[1] = molecular target: T1, IL-6R on HEK293-STAT3-Luc reporter cells (UniProt P08887 20-468, limits assumed); assay: cell-based or functional assay
T1 sequence (looked up): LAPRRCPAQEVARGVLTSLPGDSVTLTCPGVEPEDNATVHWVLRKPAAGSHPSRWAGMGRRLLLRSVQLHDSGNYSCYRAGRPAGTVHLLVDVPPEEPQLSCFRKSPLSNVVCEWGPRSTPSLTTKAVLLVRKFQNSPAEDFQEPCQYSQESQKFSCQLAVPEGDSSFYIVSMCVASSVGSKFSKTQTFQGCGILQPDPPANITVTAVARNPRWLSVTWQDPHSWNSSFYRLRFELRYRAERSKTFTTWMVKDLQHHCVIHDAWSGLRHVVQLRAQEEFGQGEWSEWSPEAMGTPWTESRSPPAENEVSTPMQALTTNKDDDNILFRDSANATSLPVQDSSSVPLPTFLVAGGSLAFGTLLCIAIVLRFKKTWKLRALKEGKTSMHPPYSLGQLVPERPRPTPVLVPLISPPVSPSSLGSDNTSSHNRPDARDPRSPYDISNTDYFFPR

[2] = molecular target: T1, IL-6R on HEK293-STAT3-Luc reporter cells; assay: cell-based or functional assay; remark: listed apart in the source
[3] = molecular target: T2, human IL-6 (mature hIL-6) (human, UniProt P05231 30-212); assay: cell-based or functional assay
[4] = molecular target: T2, human IL-6 (mature hIL-6); assay: cell-based or functional assay; remark: listed apart in the source
[5] = molecular target: T2, human IL-6 (mature hIL-6); assay: cell-based or functional assay; remark: listed apart in the source
[6] = molecular target: T2, human IL-6 (mature hIL-6); assay: cell-based or functional assay; remark: listed apart in the source
[7] = molecular target: T3, recombinant human HPC4-tagged IL-6 (human, UniProt P05231 30-212); assay: SPR, HPC4-IL-6 captured on anti-HPC4 antibody, VHH injected, 25 C, 1:1 model
T3 construct: captured on an anti-HPC4 antibody in SPR; also called HPC4-human IL6
Experimental: Binding of purified anti-IL-6 VHHs to recombinant human HPC4-tagged IL-6 (SEQ ID NO: 98) was probed by Surface Plasmon Resonance (SPR).
IL-6 was captured at a flow rate of 10 μL/min for 30 seconds.
Subsequently, concentration series of VHH polypeptides according to Table 33 were injected at a flow rate of 50 μL/min for 200 seconds to allow for binding to […] followed by 600 seconds running buffer (10 mM HEPES, 150 mM NaCl, 5 mM CaCl₂, 0.05% (v/v) Surfactant P20, 1 mg/mL bovine serum albumin, pH 7.4) injection allowing dissociation from IL-6. The running buffer was also used for dilution of anti-IL-6 VHHs and IL-6. Regeneration of the chip was achieved using a regeneration buffer consisting of 50 mM EDTA in running buffer without CaCl₂, 30 seconds contact time, and a 30 μL/min flow rate applied twice to the surface. The binding data were collected at 25° C. at either a Biacore instrument (Cytiva AB, Uppsala) or a Bruker SPR32 (Bruker Daltonics). Data were analysed according to a 1:1 model using either BiaEvaluation or Biacore Insight Evaluation (Cytiva AB, Uppsala) or Bruker Analyser (Bruker Daltonics).

T3 sequence (P05231 other isoform, or with tags, fused parts or gaps limits assumed): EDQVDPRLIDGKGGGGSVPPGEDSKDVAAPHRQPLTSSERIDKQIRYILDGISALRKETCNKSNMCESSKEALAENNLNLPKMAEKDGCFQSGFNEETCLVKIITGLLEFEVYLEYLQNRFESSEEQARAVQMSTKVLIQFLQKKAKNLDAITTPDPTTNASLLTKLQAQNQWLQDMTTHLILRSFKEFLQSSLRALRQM
T2 sequence (P05231 30-212): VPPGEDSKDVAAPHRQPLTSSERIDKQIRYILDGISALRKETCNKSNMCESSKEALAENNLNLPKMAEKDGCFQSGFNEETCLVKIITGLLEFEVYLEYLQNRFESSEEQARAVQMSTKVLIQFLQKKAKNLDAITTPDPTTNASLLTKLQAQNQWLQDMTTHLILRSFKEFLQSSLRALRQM

B2: anti-IL-6 VHH building block 7G05 SIA comparator (VHH)
VHH: QVKLEESGGGLVQPGGSLRLSCAASGSISRFNIMGWYRQAPGKQRELVADITNGGTTMYADSVKGRFTISRDNTKNTVYLQMNSLKPEDTAVYYCHTYYPTTGFDDWGQGAQVTVSS
IC50 (nM), STAT3-luc reporter gene assay [3]: 0.115 nM | Relative IC50 to Polypeptide_29 [3]: 2.6 fold | Relative IC50 to Reference Anti-IL6 Fab [3]: 2.9 fold

B3: Polypeptide_29 (VHH)
VHH: EVQLVESGGGLVQPGGSLKLSCTTSGRRFSEYAVGWFRQAPGKEREFVADIGEQAENTWYAESVLGRFTISRDDAKNTVYLEMDGLKPEDTAVYYCAADKYGVGGNAQGYYDSWGQGTQVTVSS
notes: VHH_1.6 with C-terminal His tag extension E1; also called [VHH_1.6]-E1
IC50 (nM) mean, STAT3-luc reporter gene assay [4]: 0.039 nM | Relative IC50 to Polypeptide_29 [4]: 1 fold | IC50 (nM), STAT3-luc reporter gene assay [5]: 0.034 nM | Relative IC50 to Reference Polypeptide_29 [5]: 1 fold | IC 50 (nM), reporter gene assay, 0% HSA [6]: 0.035 nM | Kd [7]: 3.9 pM | koff [7]: 8.69e-05 s⁻¹ | kon [7]: 2.23e+07 M⁻¹ s⁻¹ | IC50 (nM), STAT3-luc reporter gene assay [3]: 0.044 nM | Relative IC50 to Polypeptide_29 [3]: 1 fold | Relative IC50 to Reference Anti-IL6 Fab [3]: 1.1 fold

B4: Compound 19 (VHH)
VHH: B3 VHH
modifications: Chem. 27 (C20 fatty acid substituent) on Cys in position 4 and on Cys in position 6 of the extension (SEQ ID NO: 162)
IC50 (nM) mean, STAT3-luc reporter gene assay [4]: 0.042 nM | Relative IC50 to Polypeptide_29 [4]: 1.1 fold

Second part, the binder after the results:

IC 50 (nM), reporter gene assay, 0% HSA [1]: 0.114 nM | IC50 (nM), STAT3-luc reporter gene assay [2]: 0.114 nM | Relative IC50 to Polypeptide_29 [2]: 2.6 fold | Relative IC50 to Reference Anti-IL6 Fab [2]: 2.9 fold
B1: Vobarilizumab anti-IL-6R domain SIA comparator (VHH)
VHH: EVQLVESGGGLVQPGGSLRLSCAASGSVFKINVMAWYRQAPGKGRELVAGIISGGSTSYADSVKGRFTISRDNAKNTLYLQMNSLRPEDTAVYYCAFITTESDYDLGRRYWGQGTLVTVSS

IC50 (nM) mean, STAT3-luc reporter gene assay [4]: 0.043 nM | Relative IC50 to Polypeptide_29 [4]: 1.2 fold
B5: Compound 18 (VHH)
VHH: B3 VHH
modifications: Chem. 26 (C18 fatty acid substituent) on Cys in position 4 and on Cys in position 6 of the extension (SEQ ID NO: 162)

IC 50 (nM), reporter gene assay, 0% HSA [6]: 0.026 nM | IC 50 (nM), reporter gene assay, 1% HSA [6]: 0.017 nM | IC50 (nM), STAT3-luc reporter gene assay [3]: 0.039 nM | Relative IC50 to Polypeptide_29 [3]: 0.9 fold | Relative IC50 to Reference Anti-IL6 Fab [3]: 1 fold
B6: Reference Anti-IL6 Fab (Fab, V domains shown)
VH: EVQLVESGGGLVQPGGSLRLSCAASGFTISSNYMIWVRQAPGKGLEWVSDLYYYAGDTYYADSVKGRFTMSRDISKNTVYLQMNSLRAEDTAVYYCARWADDHPPWIDLWGRGTLVTVSS
VL: DIQMTQSPSTLSASVGDRVTITCRASQGISSWLAWYQQKPGKAPKVLIYKASTLESGVPSRFSGSGSGTEFTLTISSLQPDDFATYYCQQSWLGGSFGQGTKLEIKR

From patent US20250333496A1 (Novo Nordisk, published 2025)
